Experimental data from patent publication US20240174992A1, “SPLIT MODIFIED DEHALOGENASE VARIANTS” (Promega Corporation, priority 2022, published 2024).
Changes are numbered by the printed parent chain. Names and notes keep the numbering of the source.

B1: HaloTag[22-297](M2F): large HaloTag fragment, positions 22-297 with M to F substitution at second position (protein)
chain: MFHYVDVGPRDGTPVLFLHGNPTSSYVWRNIIPHVAPTHRCIAPDLIGMGKSDKPDLGYFFDDHVRFMDAFIEALGLEEVVLVIHDWGSALGFHWAKRNPERVKGIAFMEFIRPIPTWDEWPEFARETFQAFRTTDVGRKLIIDQNVFIEGTLPMGVVRPLTEVEMDHYREPFLNPVDREPLWRFPNELPIAGEPANIVALVEEYMDWLHQSPVPKLLFWGTPGVLIPPAEAARLAKSLPNCKAVDIGPGLNLLQEDNPDLIGSEIARWLSTLEISG
B2: HaloTag[22-297](Q145H+P154R): variant of the LgHT, positions 22-297 with HaloTag9 mutations (protein)
chain: B1 chain with F2M, Q145H, P154R

Experiments:
[1] = Complementation of N-terminal split HaloTag constructs in E. coli lysates, Janelia Fluor ligand fluorescence; type: biochemical; settings: 500 nM Rapamycin, 50 nM JF646
Experimental: FIG. 21A-B. Comparison of complementation activity of N-terminal split HaloTag constructs. Each HaloTag fragment was expressed separately in E. coli and then combined after lysis. The smaller N-terminal HaloTag fragments as FKBP fusions were tested against the larger fragments of FIG. 21A HT(23-297)-FRB or FIG. 21B HT(22-297)-FRB. To each reaction, 500 nM Rapamycin was added and incubated at room temperature for 2.5 hours prior to addition of 50 nM JF646 ligand and measurement of fluorescence at the indicated timepoint.
FIG. 22. Comparison of truncations of N-terminal split HaloTag constructs. Each HaloTag fragment was expressed separately in E. coli and then combined after lysis. […] To each reaction, 500 nM Rapamycin was added and incubated at room temperature for 2 hours prior to addition of 50 nM JF646 ligand and measurement of fluorescence at the indicated timepoint.
FIG. 25A-B. Mutations in N-terminal split HaloTag fragments improve fluorescence intensity and fold response. […] To each reaction, 500 nM Rapamycin was added and incubated at room temperature for 2 hours prior to addition of 50 nM JF646 ligand and measurement of fluorescence at the indicated timepoint. FIG. 25A Fluorescence intensity is shown for +Rapamycin condition to show the overall system brightness relative to FIG. 25B Fold response following Rapamycin addition. […]

[2] = tested on: synthetic HaloTag[3-19] peptide; test: Complementation of large HaloTag fragment in E. coli lysates with synthetic HaloTag[3-19] peptide, JF646; type: binding; settings: for Kd: synthetic HaloTag[3-19] peptide titration up to 1 mM, estimated from saturation of fluorescence signal, read-out: affinity between the split HaloTag fragments
Experimental: FIG. 30. Complementation of HaloTag[22-297](M2F) fragment in E. coli lysates using a synthetic HaloTag[3-19] peptide. […] Reactions were incubated for 2 hours at room temperature and then labeled with 50 nM JF646 HaloTag ligand prior to fluorescence detection.
FIG. 31. Complementation of HaloTag[22-297](Q145H+P154R) fragment in E. coli lysates using a synthetic HaloTag[3-19] peptide. […] Reactions were incubated for 2 hours at room temperature and then labeled with 50 nM JF646 HaloTag ligand prior to fluorescence detection.

HeLa cells [3] = test: Live cell confocal imaging of split HaloTag in the FRB/FKBP model system in HeLa cells; type: cell-based; settings: for signal-to-background ratio, complemented split HaloTag over labeling the large HaloTag alone: presence of Rapamycin; for S:B ratio in +rapamycin/−rapamycin conditions: with HaloTag[3-19] fragment, JF646 imaging
Experimental: (§1) FIG. 105. Live cell imaging of split HaloTag activity in mammalian cells using a model protein interaction system showing dependence on interaction facilitation for labeling. HeLa cells transiently transfected with plasmids expressing both EGFP-FKBP-HaloTag[3-19] and HaloTag[22-297](Q145H+P154R)-FRB were imaged in +/−Rapamycin conditions; in +Rapamycin condition cells were incubated with 1 micromolar Rapamycin overnight at 37° C. Prior to imaging by confocal microscopy, cells were labeled with 100 nM JF646 HaloTag ligand for 30 minutes at 37° C. The Imaging data were collected in the Far-red channel (Ex. 637 nm, left) and the green channel (Ex. 488 nm, right).
(§2) FIG. 106. Quantitation of live cell imaging of split HaloTag activity in mammalian cells using a model protein interaction system. HeLa cells transiently transfected with plasmids expressing both EGFP-FKBP-HaloTag[3-19] and HaloTag[22-297](Q145H+P154R)-FRB were imaged in +/−Rapamycin conditions; in +Rapamycin condition cells were incubated with 1 micromolar Rapamycin overnight at 37° C. Prior to imaging by confocal microscopy, cells were labeled with 100 nM JF646 HaloTag ligand for 30 minutes at 37° C. Comparison of the fluorescence intensity of non-complemented vs. complemented split HaloTag in +/−RAP conditions in the far-red channel, respectively.
as §1, with “107.” for “105.”, “HaloTag[22-297](M2F)-FRB” for “HaloTag[22-297](Q145H+P154R)-FRB”
as §2, with “FIG. 108. Quantitation of” for “FIG. 106. Quantitation of”, “EGFP-FKBP-HaloTag[3-19] and HaloTag[22-297](M2F)-FRB were imaged” for “EGFP-FKBP-HaloTag[3-19] and HaloTag[22-297](Q145H+P154R)-FRB were imaged”, “minutes at Comparison of” for “minutes at 37° C. Comparison of”
FIG. 109. […] Each dot represents the intensity of an imaged cell as quantitated using CellProfiler software.
FIG. 115. Live cell imaging of split HaloTag activity in mammalian cells. HeLa cells transiently transfected with plasmids expressing both EGFP-FKBP-HaloTag[3-19] and HaloTag[22-297](Q145H+P154R)-FRB were imaged in +Rapamycin condition, 1 micromolar Rapamycin overnight incubation at 37° C. Prior to imaging by confocal microscopy, cells were labeled with 100 nM JF646 HaloTag ligand for 30 minutes at 37° C. The Imaging data were collected in the Far-red channel (Ex. 637 nm, bottom) and the green channel (Ex. 488 nm, top).
FIG. 116. Live cell imaging of split HaloTag activity in mammalian cells. HeLa cells transiently transfected with plasmids expressing both EGFP-FKBP-HaloTag[3-19] and HaloTag[22-297](Q145H+P154R)-FRB were imaged in and −Rapamycin condition. […]

[4] = biological target: T1, BRD4:Histone H3.3 interaction (Homo sapiens, UniProt O60885); test: Live cell imaging of the BRD4:Histone H3 interaction with split HaloTag in HeLa cells; type: cell-based; settings: second experiment, lower laser intensity
T1 construct: HaloTag[3-19]; expressed in transfected cells; host or cells: HeLa cells
Description: The Imaging data were collected in the far-red channel (Ex. 637 nm) and the green channel (Ex. 488 nm).
The imaging data were collected in the far-red channel (Ex. 637 nm) and the green channel (Ex. 488 nm). * DIC: Differential Interference Contrast.
The imaging data were collected in the far-red channel (Ex. 637 nm) and the green channel (Ex. 488 nm).
Each dot represents the intensity of an imaged cell. CellProfiler software is used for analysis. The horizontal line in each set indicates the median of the data.
Each dot represents the intensity of an imaged cell. CellProfiler software is used for this analysis. The horizontal line is indicative of the median of the data.
A second set of imaging experiments was performed to confirm reproducibility and show improvement of the system's signal-to-background ratio by changing a few confocal microscope settings, such as lower gain and laser intensity (FIG. 132).
The purpose of the second experiment (FIG. 131-134) with lower signal intensity was to see if most of the background signal could be eliminated with the cost of the overall reduction in the specific signal in the far-red channel.

[5] = biological target: T2, BRD4:Histone H3 interaction (Homo sapiens, UniProt O60885); test: Single live cell time-lapse imaging after JQ1 addition (SmHaloTag dissociation); type: cell-based; settings: 20 micromolar JQ1, up to about 5 hours, ligand-bound
T2 construct: HaloTag[3-19]; expressed in transfected cells; host or cells: HeLa cells
Experimental: FIG. 139. Quantitation of single live cell time-lapse imaging of inhibition of the BRD4:Histone H3 interaction using split HaloTag fluorescence. […] The intensity of a single cell in both the green and the far-red channel plus its occupied area was tracked over this period.
Measurement of the fluorescence intensity of Split HaloTag after the dissociation of the Small HaloTag peptide, HaloTag[3-19], was tested. After the separation of the SmHaloTag, the Large HaloTag, HaloTag[22-297](M2F), is still covalently bound to the ligand but does the Small HaloTag dissociation affect the ligand fluorogenicity/activity? Time-lapse live cell imaging was performed to address this question. To ensure the tracked cell was viable during the experiment, the area occupied by that specific cell was measured at all time points.

[6] = Kinetic labeling assay with TMR ligand, fluorescence polarization, synthetic peptide complementation; type: biochemical, E. coli; settings: 10 nM TMR ligand
Experimental: FIG. 32. Complementation of HaloTag[22-297](M2F) fragments using a synthetic HaloTag[3-19] peptide in a kinetic labeling assay.
A different HaloTag ligand (TMR) and fluorescence polarization assay format can be used to measure complementation with synthetic peptides (FIG. 32). […] At high peptide concentrations, the complementation with the peptide results in greater labeling rates.
The LgHT variant, HaloTag[22-297](Q145H+P154R), was also tested with the HaloTag ligand (TMR) in the fluorescence polarization assay format to measure complementation with synthetic peptides (FIG. 33). The relative kinetic rate of labeling is higher for this mutant without peptide due to its greater intrinsic stability and expression in E. coli lysates.

HeLa cells [7] = test: Lytic TMR assay of large HaloTag fragment expression in HeLa cells; type: cell-based; settings: complemented and non-complemented forms
Experimental: FIG. 124. Comparing the expression of HaloTag[22-297](Q145H+P154R) and HaloTag[22-297](M2F) when complemented with the small HaloTag fragment in mammalian cells. 50 ul of HeLa cells lysate that was transiently transfected with plasmids expressing EGFP-FKBP-HaloTag[3-19], HaloTag[22-297](Q145H+P154R)-FRB or HaloTag[22-297](M2F)-FRB plasmids and were incubated with 500 nM Rapamycin at room temperature for 2 hours to induce HaloTag fragments complementation. TMR HaloTag ligand at 2 micromolar was added to all wells and incubated at room temperature in the dark overnight prior to resolution by SDS-PAGE and fluorescence detection.
Experiments were conducted during development of embodiments herein to compare the expression of HaloTag[22-297](Q145H+P154R) vs. HaloTag[22-297](M2F) as complemented with the small HaloTag fragment HaloTag[3-19] and non-complemented form in mammalian cells (FIG. 124).

[8] = compared with HaloTag[22-297](M2F)

Molecule | effect of mutation in the HT(22-297) large fragment on system performance [1] | Kd [2] [µM] | signal-to-background ratio, complemented split HaloTag over labeling the large HaloTag alone (HeLa cells [3]) | S:B ratio in +rapamycin/−rapamycin conditions (HeLa cells [3]) | S:B ratio, background from labeling the large HaloTag [4] | change in cell intensity upon SmHaloTag dissociation [5] | complemented signal [2, 8] | fold response [2, 8] | labeling rate in the presence of peptide [6] | response to Rapamycin (HeLa cells [3]; HaloTag[3-19] fusion plus variant LgHT fusion, 1 micromolar Rapamycin, 100 nM JF646) [fold] | expression in mammalian cells (HeLa cells [7]) | apparent affinity for the peptide (saturates fluorescence intensity at higher peptide concentrations) | lowest peptide concentration with measurable fold response (synthetic HaloTag[3-19] peptide)
B1 | improve the fold response | > 100 | 16 | about 6.7 | 12 | reduces almost by half |  |  |  |  |  |  | 
B2 | significantly enhanced the labeling speed | ~1 | 5.7 | about 4 |  |  | higher complemented signal | lower fold response | faster labeling rates relative to the HaloTag[22-297](M2F) mutant | 25 | expressed better than HaloTag[22-297](M2F) | higher apparent affinity for the peptide | mid-nanomolar range
